Positions count from the first letter of the chain named. Names and notes keep the numbering of the source.
T1: murine PD-1 (murine, UniProt Q02242 25-167, limits assumed)
T1 construct: also called mouse PD-1
T1 sequence (looked up): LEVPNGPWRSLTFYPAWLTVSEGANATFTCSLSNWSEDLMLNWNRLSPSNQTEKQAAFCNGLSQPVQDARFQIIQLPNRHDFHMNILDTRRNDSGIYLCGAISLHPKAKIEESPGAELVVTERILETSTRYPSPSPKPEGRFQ

B1: PD1#4 (antibody, V domains shown)
VH: EVRLVESGGGLVKPGGSLKVSCVASGFTFSRYGMSWVRQTPEKRLEWVATISGGGRDTYYPDSVKGRFTISRDNAKNNLYLQMSSLRSEDTALYYCVRQEDIVWFAYWGQGTLVTVSA
VL: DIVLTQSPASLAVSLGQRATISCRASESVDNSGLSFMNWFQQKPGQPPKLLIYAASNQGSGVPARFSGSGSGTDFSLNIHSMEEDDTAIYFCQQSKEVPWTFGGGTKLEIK
notes: Murine hybridoma mAb purified on Protein A; also called mAb PD1#4
B2: PD1#3 (antibody, V domains shown)
VH: EVQLVESGGDLVKPGGSLKLSCAASGFVFSRYDMAWVRQTPEKRLEWVAFISGGGSNTYYPDTVKGRFTISRDNAKNTLYLQMTSLKSEDTAVYYCISPYYYAMEYWGQGTSVTVSS
VL: DIVMTQSHKFISTSVGDRVSITCKASQDVDTAVAWYQQKPGQSPKLLIHWASTRHTGVPDRFTGGGSGTDFTLTLSNVQSEDLADYFCQQYSTFPWTFGGGTRLEIK
notes: Murine hybridoma mAb purified on Protein A; also called mAb PD1#3
B3: PD1#1 (antibody, V domains shown)
VH: QVQLQQPGAELVMPGASVKMSCKASGYTITDCWMHWVKQRPGQGLEWIGAIDTSNSYTTYNQKFKGKATLTVDESSSTAYMQFNSLTSDDSAVYFCAISLQRPFDYWGQGTTLTVSS
VL: DIQMTQSPASLSASVGENVTITCRASENVYSYLAWYQQKEGKSPQLLVYNAKTLTGGVPSRFSGSGSGTQFSLRISSLQPEDFGSYYCLQHYGYPFTFGSGTKLEKK
notes: Murine hybridoma mAb purified on Protein A; also called mAb PD1#1
B4: PD1-BM-min Ab (Fab) (Fab, V domains shown)
VH: EVQLVESGGGLVQPGGSLRLSCAASGFVFSRYDMAWVRQAPGKGLEWVSFISGGGSNTYYPDTVKGRFTISRDNSKNTLYLQMNSLRAEDTAVYYCISPYYYAMEYWGQGTTVTVSS
VL: DIQMTQSPSSVSASVGDRVTITCKASQDVDTAVAWYQQKPGKAPKLLIYWASTRHTGVPSRFSGSGSGTDFTLTISSLQPEDFATYYCQQYSTFPWTFGGGTKVEIK
notes: Humanized Fab with only the VH A97I and K98S back mutations; also called PD1-Grafted VH-A97I & K98S
B5: AS05617 (IgG) (antibody, V domains shown)
VH: B4 VH with A40T
VL: DIQMTQSPSSISTSVGDRVTITCKASQDVDTAVAWYQQKPGKSPKLLIYWASTRHTGVPSRFSGSGSGTDFTLTISSLQPEDFADYFCQQYSTFPWTFGGGTKVEIKR
notes: Full-length humanized IgG from HEK293 cells
B6: PD1-BM Ab (IgG) (antibody, V domains shown)
VH: B4 VH with A40T, S49A
VL: B5 VL with Y49H, I75L, L78V, F83L, V104L
notes: as for B5
B7: PD1-BM-min (IgG) (antibody, V domains shown)
VH: B4 VH
VL: B5 VL with I11V, T13A, S43A, D85T, F87Y
notes: as for B5
B8: AS05616 (Fab, V domains shown)
VH: B4 VH with A40T
VL: B4 VL with V11I, A13T, A43S, Y49H, T85D, Y87F
notes: Humanized Fab-SASA clone from the phage library
B9: PD1-BM Ab (Fab) (Fab, V domains shown)
VH: B4 VH with A40T, S49A
VL: B4 VL with V11I, A13T, A43S, Y49H, I75L, L78V, F83L, T85D, Y87F, V104L
notes: Humanized Fab with all 14 back mutations; also called PD1-BM Fab
B10: AS05614 (Fab, V domains shown)
VH: B4 VH with A40T
VL: B4 VL with V11I, A13T, A43S, Y49H, I75L, L78V, Y87F
notes: as for B8
B11: AS05618 (Fab, V domains shown)
VH: B4 VH with A40T
VL: B4 VL with V11I, A13T, A43S, Y49H, T85D, Y87F, V104L
notes: as for B8
B12: AS05617 (Fab) (Fab, V domains shown)
VH: B4 VH with A40T
VL: B4 VL with V11I, A13T, A43S, T85D, Y87F
notes: as for B8
B13: chimeric Fab (Fab, V domains shown)
VH: B2 VH
VL: B2 VL
notes: Crude murine-human chimeric Fab from E. coli TG1, made with the HCVR and LCVR of PD1#3; Only the variable domains are tied to it
B14: Fab 13 (Fab, V domains shown)
VH: B4 VH with A40T, S49A
VL: B4 VL with V11I, A13T, A43S, Y49H, I75L, L78V, F83L, T85D, V104L
notes: Crude Fab from E. coli; also called PD1-BM VL-F87Y
B15: Fab 6 (Fab, V domains shown)
VH: B4 VH with A40T, S49A
VL: B4 VL with V11I, A43S, Y49H, I75L, L78V, F83L, T85D, Y87F, V104L
notes: Crude Fab from E. coli; also called PD1-BM VL-T13A
B16: Fab 11 (Fab, V domains shown)
VH: B4 VH with A40T, S49A
VL: B4 VL with V11I, A13T, A43S, Y49H, I75L, L78V, T85D, Y87F, V104L
notes: Crude Fab from E. coli; also called PD1-BM VL-L83F
B17: Fab 5 (Fab, V domains shown)
VH: B4 VH with A40T, S49A
VL: B4 VL with A13T, A43S, Y49H, I75L, L78V, F83L, T85D, Y87F, V104L
notes: Crude Fab from E. coli; also called PD1-BM VL-I11V
B18: Fab 8 (Fab, V domains shown)
VH: B4 VH with A40T, S49A
VL: B4 VL with V11I, A13T, A43S, I75L, L78V, F83L, T85D, Y87F, V104L
notes: Crude Fab from E. coli; also called PD1-BM VL-H49Y
B19: Fab 10 (Fab, V domains shown)
VH: B4 VH with A40T, S49A
VL: B4 VL with V11I, A13T, A43S, Y49H, I75L, F83L, T85D, Y87F, V104L
notes: Crude Fab from E. coli; also called PD1-BM VL-V78L
B20: Fab 12 (Fab, V domains shown)
VH: B4 VH with A40T, S49A
VL: B4 VL with V11I, A13T, A43S, Y49H, I75L, L78V, F83L, Y87F, V104L
notes: Crude Fab from E. coli; also called PD1-BM VL-D85T
B21: Fab 9 (Fab, V domains shown)
VH: B4 VH with A40T, S49A
VL: B4 VL with V11I, A13T, A43S, Y49H, L78V, F83L, T85D, Y87F, V104L
notes: Crude Fab from E. coli; also called PD1-BM VL-L75I
B22: Fab 3 (Fab, V domains shown)
VH: B4 VH with A40T, S49A, I97A
VL: B4 VL with V11I, A13T, A43S, Y49H, I75L, L78V, F83L, T85D, Y87F, V104L
notes: Crude Fab from E. coli; also called PD1-BM VH-I97A
B23: Fab 1 (Fab, V domains shown)
VH: B4 VH with S49A
VL: B4 VL with V11I, A13T, A43S, Y49H, I75L, L78V, F83L, T85D, Y87F, V104L
notes: Crude Fab from E. coli; also called PD1-BM VH-T40A
B24: Fab 14 (Fab, V domains shown)
VH: B4 VH with A40T, S49A
VL: B4 VL with V11I, A13T, A43S, Y49H, I75L, L78V, F83L, T85D, Y87F
notes: Crude Fab from E. coli; also called PD1-BM VL-L104V
B25: Fab 7 (Fab, V domains shown)
VH: B4 VH with A40T, S49A
VL: B4 VL with V11I, A13T, Y49H, I75L, L78V, F83L, T85D, Y87F, V104L
notes: Crude Fab from E. coli; also called PD1-BM VL-S43A

Target: T1, murine PD-1
Assay: murine PD-1 binding ELISA

Binder	binding result
B1	no binding
B2	no binding
B3	no binding

Target: T2, human PD-1 (human, UniProt Q15116 25-167)
T2 construct: The immunogen was PD1/Fc (Leu25-Gln167 fused to human IgG1 Pro100-Lys330); also called huPD-1; hPD-1
Assay: SPR; antigen form not stated

T2 sequence (Q15116 25-167 limits assumed): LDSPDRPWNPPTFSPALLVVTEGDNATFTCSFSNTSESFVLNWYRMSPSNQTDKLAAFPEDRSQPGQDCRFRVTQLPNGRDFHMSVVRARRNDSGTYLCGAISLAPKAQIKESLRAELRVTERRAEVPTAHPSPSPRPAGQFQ

Binder	Kd [nM]	koff [s⁻¹]	kon [M⁻¹ s⁻¹]
B4	0.253	8.4e-05	332000

Target: T3, His-tagged human PD-1 protein (human, UniProt Q15116 25-170, limits assumed)
T3 construct: SPR analyte; also called his-tagged antigen PD-1; not shown: His tag
Assay: SPR (Biacore T200); IgG captured by anti-human Fc gamma, His-tagged human PD-1 as analyte, 1:1 model
Description: The binding affinity of the purified IgGs to human PD-1 protein were determined using a Surface Plasmon Resonance (SPR) biosensor, Biacore T200 (GE Healthcare). Antibodies were captured on the sensor chip pre-coated with anti-human Fc gamma. His-tagged human PD-1 protein was used as analyte. The data of dissociation (kd) and association (kₐ) rate constants were obtained using Biacore T200 evaluation software. The equilibrium dissociation constants (KD) were calculated from the ratio of kd over kₐ. Binding data for each antibody was processed and fitted to 1:1 interaction model using Biacore T200 evaluation software. All experimental data could be well fitted to the model.

T3 sequence (Q15116 25-170 limits assumed): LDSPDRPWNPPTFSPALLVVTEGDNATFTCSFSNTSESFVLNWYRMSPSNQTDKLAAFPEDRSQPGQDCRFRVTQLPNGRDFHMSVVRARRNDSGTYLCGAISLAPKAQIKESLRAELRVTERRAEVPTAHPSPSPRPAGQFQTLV

Binder	Kd [nM]	koff [s⁻¹]	kon [M⁻¹ s⁻¹]
B5	1	0.000183	183000
B6	0.579	0.000139	241000
B7	0.943	0.000263	279000

Target: T3, His-tagged human PD-1 protein
Assay: SPR; Fab-SASA captured on immobilised BSA, his-tagged PD-1 as analyte
Description: For affinity ranking, BSA was immobilized onto the sensor chip using amine coupling method. The selected Fab-SASA secreted to the culture medium was injected and captured by BSA through the tight binding between BSA and SASA (capture phase). After equilibration, his-tagged antigen PD-1 was injected for 300 seconds (association phase) followed by the injection of running buffer for 900 seconds (dissociation phase). The surface was regenerated before the injection of another three Fab-SASA clones. The process was repeated until all selected Fab-SASA proteins were analyzed. Responses of reference flow cell were subtracted from those of Fab-SASA flow cells during each cycle. The antibodies were ranked by their dissociation rate constants (off-rates, […]). […]

Binder	Kd [nM]	koff [s⁻¹]	kon [M⁻¹ s⁻¹]
B8	0.311	0.000105	336000
B9	0.0564	1.78e-05	315000
B10	0.37	0.000134	363000
B11	0.41	0.000151	369000
B12	0.0854	3e-05	351000

Target: T2, human PD-1
Assay: SPR, multiple-cycle, crude Fab from E. coli; antigen form not stated
Excerpt: A homology model of mouse anti-PD1 Fv was built wherein putative back mutation sites (i.e., buried residues of the frameworks that are different in the mouse and human acceptor sequences) were identified. There were a total of 14 putative back mutation sites. A variant humanized Fab comprising all 14 of the putative back mutation sites of PD1-grafted Ab mutated back to their mouse counterparts (hereinafter identified as “PD1-BM Ab”) comprising the heavy chain variable region sequence set forth in SEQ ID NO: 38 and the light chain variable region sequence set forth in SEQ ID NO: 39, was synthesized. In addition, 14 variants of PD1-BM Ab (hereinafter identified as Fabs 1-14), each having at least one of the putative 14 back mutation sites in PD1-BM Ab mutated back to the human counterpart, were synthesized. These constructs were used to transform E. coli TG1 strain. Single colonies were pick for each individual construct and grown in E. coli medium. Crude chimeric and humanized Fabs were collected and subjected to multiple-cycle affinity estimation by Surface Plasmon Resonance (SPR).

Binder	Kd [nM]	koff [s⁻¹]	kon [M⁻¹ s⁻¹]
B13	0.5	0.00015	300000
B9	0.15	5.5e-05	360000
B14	0.29	0.0001	350000
B15	0.25	9.6e-05	380000
B16	0.72	0.00022	300000
B17	0.34	0.00013	370000
B18	0.57	0.00019	340000
B19	0.29	9.1e-05	320000
B20	0.28	9.4e-05	330000
B21	0.24	8e-05	330000
B22	1.1	0.00035	320000
B23	0.32	9.8e-05	310000
B24	0.68	0.0002	300000
B25	0.59	0.00016	270000
